According to publication PMC12059179, “A short intrinsically disordered region at KtrB’s N-terminus facilitates allosteric regulation of K^+ channel KtrAB” (Nature Communications, 2025):

B1: KtrB from Vibrio alginolyticus with deletion of residues 2-19 (natural protein)
chain: MAKGGEPRIILLSFLGVLLPSAVLLTLPVFSVSGLSITDALFTATSAISVTGLGVVDTGQHFTLAGKILLMCLMQIGGLGQMTLSAVLLYMFGVRLSLRQQALAKEALGQERQVNLRRLVKKIVTFALVAEAIGFVFLSYRWVPEMGWQTGMFYALFHSISAFNNAGFALFSDSMMSFVNDPLVSFTLAGLFIFGGLGFTVIGDVWRHWRKGFHFLHIHTKIMLIATPLLLLVGTVLFWLLERHNPNTMGSLTTGGQWLAAFFQSASARTAGFNSVDLTQFTQPALLIMIVLMLIGAGSTSTGGGIKVSTFAVAFMATWTFLRQKKHVVMFKRTVNWPTVTKSLAIIVVSGAILTTAMFLLMLTEKASFDKVMFETISAFATVGLTAGLTAELSEPGKYIMIVVMIIGRIGPLTLAYMLARPEPTLIKYPEDTVLTG
notes: KtrB, Vibrio alginolyticus, with the N-terminal residues 2-19 deleted; Two KtrB dimers stand in the solved assembly: KtrBΔ2-19_(4)A8, deposited as KtrB2A8B2 with the N-terminal KtrB deletion; also called KtrBΔ2-19; KtrAB_(Δ2-19); source: purified as a complex with KtrA (SEC)
B4: KtrB from Vibrio alginolyticus, tagless, full length (natural protein, UniProt O87953 1-455, looked up)
chain: MTQFHQRGVFYVPDGKRDKAKGGEPRIILLSFLGVLLPSAVLLTLPVFSVSGLSITDALFTATSAISVTGLGVVDTGQHFTLAGKILLMCLMQIGGLGQMTLSAVLLYMFGVRLSLRQQALAKEALGQERQVNLRRLVKKIVTFALVAEAIGFVFLSYRWVPEMGWQTGMFYALFHSISAFNNAGFALFSDSMMSFVNDPLVSFTLAGLFIFGGLGFTVIGDVWRHWRKGFHFLHIHTKIMLIATPLLLLVGTVLFWLLERHNPNTMGSLTTGGQWLAAFFQSASARTAGFNSVDLTQFTQPALLIMIVLMLIGAGSTSTGGGIKVSTFAVAFMATWTFLRQKKHVVMFKRTVNWPTVTKSLAIIVVSGAILTTAMFLLMLTEKASFDKVMFETISAFATVGLTAGLTAELSEPGKYIMIVVMIIGRIGPLTLAYMLARPEPTLIKYPEDTVLTG
notes: KtrB, transmembrane pore-forming subunit of the K+ channel KtrAB, Vibrio alginolyticus; C-terminal residue G455; Homodimer; It was in DDM for the deposited structures and in MSP2N2 nanodiscs with E. coli polar lipids for one cryo-EM data set; also called VaKtrB; KtrB dimer; source: E. coli LB2003, membranes mixed with KtrA-containing cytosol, solubilised in DDM, co-purified with KtrA (Ni-NTA, …)

Assays:
KtrA (VaKtrA, KtrAC3H) [1] = molecular target: T1, KtrA (VaKtrA, KtrAC3H) (Vibrio alginolyticus, UniProt O87952); test: isothermal titration calorimetry; format: binding; settings: pH 8, 24 °C, 20 mM HEPES, 140 mM NaCl, 60 mM KCl; one-site fit; no KtrB
T1 construct: full-length cytosolic RCK subunit, C-terminal 3C-cleavable His tag (KtrAC3H), eluted with imidazole (tag kept), expressed in E. coli C43(DE3)ΔacrAB; homooctameric ring
T1 sequence (O87952 1-220): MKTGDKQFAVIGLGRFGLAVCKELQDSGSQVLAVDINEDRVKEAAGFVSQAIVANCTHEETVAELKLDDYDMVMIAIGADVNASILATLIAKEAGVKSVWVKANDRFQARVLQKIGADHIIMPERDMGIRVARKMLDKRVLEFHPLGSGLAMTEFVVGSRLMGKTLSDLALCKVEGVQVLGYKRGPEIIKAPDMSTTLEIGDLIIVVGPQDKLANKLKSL

KtrA (VaKtrA, KtrAC3H) [2] = molecular target: T1, KtrA (VaKtrA, KtrAC3H); test: differential scanning fluorimetry (SYPRO Orange); format: binding; settings: pH 7.5, 20 mM Tris-HCl, 140 mM NaCl, 60 mM KCl; 5 µM KtrA; melting temperature with ligand, not a shift
[3] = molecular target: T2, KtrAB (native KtrB2A8 complex) (Vibrio alginolyticus, UniProt O87952); test: cryo-EM structure, […] Å; format: binding; settings: co-purified ADP, sample prepared with ATP and MgCl2
T2 construct: gene ktrA; full-length complex in DDM; tagless KtrB membranes (E. coli LB2003) mixed with KtrA (C-terminal His tag, removed by 3C protease); KtrA octamer with one KtrB dimer; with Ktr system potassium uptake protein B
T2 sequence (O87952 1-220): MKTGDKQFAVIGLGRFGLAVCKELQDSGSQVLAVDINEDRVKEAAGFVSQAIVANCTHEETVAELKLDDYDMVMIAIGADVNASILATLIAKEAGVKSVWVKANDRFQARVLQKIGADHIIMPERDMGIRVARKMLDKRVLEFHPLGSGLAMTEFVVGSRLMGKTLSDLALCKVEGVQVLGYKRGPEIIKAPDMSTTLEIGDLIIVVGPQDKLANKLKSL
T2 sequence (O87953 1-455 partner): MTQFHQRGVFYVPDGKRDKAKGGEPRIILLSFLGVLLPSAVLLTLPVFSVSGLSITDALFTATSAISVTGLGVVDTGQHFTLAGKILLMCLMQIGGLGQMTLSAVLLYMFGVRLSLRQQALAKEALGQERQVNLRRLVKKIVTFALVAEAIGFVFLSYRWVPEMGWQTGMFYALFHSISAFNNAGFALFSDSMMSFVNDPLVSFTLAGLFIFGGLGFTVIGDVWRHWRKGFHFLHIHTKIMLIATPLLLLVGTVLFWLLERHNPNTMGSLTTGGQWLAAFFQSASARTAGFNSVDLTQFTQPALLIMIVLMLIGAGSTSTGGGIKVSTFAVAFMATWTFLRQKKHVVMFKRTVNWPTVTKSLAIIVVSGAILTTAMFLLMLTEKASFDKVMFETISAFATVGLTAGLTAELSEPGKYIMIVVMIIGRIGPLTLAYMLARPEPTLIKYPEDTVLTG

[4] = molecular target: T3, KtrAB (KtrB2A8B2 complex) (Vibrio alginolyticus, UniProt O87952); test: cryo-EM structure, […] Å; format: binding; settings: ADP found despite ATP agarose and ATP in the sample; Mg2+ at alpha-phosphate
T3 construct: gene ktrA; nonphysiological assembly with a second KtrB dimer on the KtrA octamer; full-length, in DDM; wild type purified via ATP agarose; KtrA C-terminal His tag removed by 3C protease; with Ktr system potassium uptake protein B
T3 sequence (O87952 1-220): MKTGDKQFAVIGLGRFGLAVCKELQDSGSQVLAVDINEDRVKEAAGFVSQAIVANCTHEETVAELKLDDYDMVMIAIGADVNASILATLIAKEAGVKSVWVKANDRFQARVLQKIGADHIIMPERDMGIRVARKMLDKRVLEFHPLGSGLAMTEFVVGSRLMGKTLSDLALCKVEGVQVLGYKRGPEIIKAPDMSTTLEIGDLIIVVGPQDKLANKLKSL
T3 sequence (O87953 1-455 partner): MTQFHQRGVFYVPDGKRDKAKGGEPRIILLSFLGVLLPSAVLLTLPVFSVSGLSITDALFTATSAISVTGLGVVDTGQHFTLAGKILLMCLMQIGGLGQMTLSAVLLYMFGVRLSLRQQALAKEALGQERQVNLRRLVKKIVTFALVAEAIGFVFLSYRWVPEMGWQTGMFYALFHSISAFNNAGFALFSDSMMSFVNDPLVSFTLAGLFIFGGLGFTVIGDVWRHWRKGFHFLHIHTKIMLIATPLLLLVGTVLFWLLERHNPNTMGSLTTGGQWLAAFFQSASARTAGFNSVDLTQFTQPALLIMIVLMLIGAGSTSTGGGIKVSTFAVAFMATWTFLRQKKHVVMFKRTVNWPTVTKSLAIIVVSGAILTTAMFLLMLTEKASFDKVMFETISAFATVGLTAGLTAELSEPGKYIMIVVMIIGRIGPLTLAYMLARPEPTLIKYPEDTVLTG

[5] = molecular target: the molecule itself; test: cryo-EM structure; KtrAB with KtrB Δ2-19, KtrBΔ2-19_(4)A8 assembly, supplemented with 1 mM ATP, 3.6 Å, 58,000 particles
[6] = molecular target: B4; test: cryo-EM structure; natively assembled KtrB2A8 complex in DDM, 2.8 Å, C2 symmetry; sample supplemented with 1 mM ATP and 2 mM MgCl2, ADP found bound; settings: both partners purified
[7] = molecular target: the molecule itself; test: as above
[8] = molecular target: B1; test: cryo-EM structure; KtrAB with KtrB Δ2-19, KtrBΔ2-19_(4)A8 assembly, supplemented with 1 mM ATP, 3.6 Å, 58,000 particles; settings: both partners purified
[9] = molecular target: B4; test: cryo-EM structure; nonphysiological KtrB2A8B2 assembly purified via ATP agarose, in DDM, 2.5 Å, D2 symmetry; 1 mM ATP and 2 mM MgCl2, ADP found bound; settings: both partners purified
[10] = molecular target: the molecule itself; test: as above

Q: Which Kd (KtrA (VaKtrA, KtrAC3H) [1]) does the source give for `Nc1ncnc2c1ncn2[C@@H]1O[C@H](COP(=O)(O)OP(=O)(O)OP(=O)(O)O)[C@@H](O)[C@H]1O` [ATP] here?
A: The Kd was 2400 nM.

Q: What about the Tm (KtrA (VaKtrA, KtrAC3H) [2]) of the same molecule?
A: The Tm was 55 °C.

Q: For `Nc1ncnc2c1ncn2[C@@H]1O[C@H](COP(=O)(O)OP(=O)(O)O)[C@@H](O)[C@H]1O` [ADP], which Kd (KtrA (VaKtrA, KtrAC3H) [1]) is on record?
A: Its Kd is 3400 nM.

Q: What about the “cryo-EM structure, 2.8 Å” value [3] of the same molecule?
A: Its value is “KtrA ring contains non-protein densities corresponding to ADP molecules”.

Q: What about the “cryo-EM structure, 2.5 Å” value [4] of the same molecule?
A: Its value is “ADP molecules bound to the N lobes of each of the eight KtrA subunits”.

Q: What about the Tm (KtrA (VaKtrA, KtrAC3H) [2]) of the same molecule?
A: Its Tm is 67 °C.

Q: Does B1 bind [5]?
A: Result: binds

B2: KtrA from Vibrio alginolyticus, His tag cleaved off with 3C protease (natively assembled KtrB2A8 preparation) (natural protein, UniProt O87952 1-220, looked up)
chain: MKTGDKQFAVIGLGRFGLAVCKELQDSGSQVLAVDINEDRVKEAAGFVSQAIVANCTHEETVAELKLDDYDMVMIAIGADVNASILATLIAKEAGVKSVWVKANDRFQARVLQKIGADHIIMPERDMGIRVARKMLDKRVLEFHPLGSGLAMTEFVVGSRLMGKTLSDLALCKVEGVQVLGYKRGPEIIKAPDMSTTLEIGDLIIVVGPQDKLANKLKSL
notes: KtrA, cytosolic RCK subunit of the K+ channel KtrAB, Vibrio alginolyticus; full-length KtrAB; Residues of the 3C site may remain at the C-terminus after cleavage; also called VaKtrA; KtrAC3H; source: E. coli C43(DE3)ΔacrAB; not shown: His tag, C-terminal, cleaved
Q: Does B2 bind [6]?
A: Result: binds

Q: What about the “stoichiometry N” value [7] of the same molecule?
A: The value was 8.

B3: KtrA from Vibrio alginolyticus with C-terminal His tag (KtrAC3H), eluted with imidazole (natural protein, UniProt O87952 1-220, looked up)
chain: MKTGDKQFAVIGLGRFGLAVCKELQDSGSQVLAVDINEDRVKEAAGFVSQAIVANCTHEETVAELKLDDYDMVMIAIGADVNASILATLIAKEAGVKSVWVKANDRFQARVLQKIGADHIIMPERDMGIRVARKMLDKRVLEFHPLGSGLAMTEFVVGSRLMGKTLSDLALCKVEGVQVLGYKRGPEIIKAPDMSTTLEIGDLIIVVGPQDKLANKLKSL
notes: KtrA, cytosolic RCK subunit of the K+ channel KtrAB, Vibrio alginolyticus; full-length KtrAB; Same construct as m1; Here no 3C cleavage is reported: imidazole elution for isolated KtrA, and imidazole removal is mentioned before the ATP agarose step; also called VaKtrA; isolated KtrA ring; source: E. coli C43(DE3)ΔacrAB, purified (Ni-NTA eluted with imidazole, SEC); for KtrB2A8B2 also ATP agarose
Q: Which results are given for B3?
A: binding result [8]: binds; binding result [9]: binds; stoichiometry N [10]: 8

Q: For B4, which “stoichiometry N” value [7] is on record?
A: Its value is 2.
